The text below walks through data of publication PMC11773481.

This assay deals with purified recombinant DPP9-FLAG, Q86TI2. The experiment in a line: SEC + native gel or EMSA; protein expressed alone in Expi293F, purified by anti-FLAG IP, Superdex 200 Increase 10/300 GL; BN-PAGE immunoblot. The note with it: remark: other sources report otherwise. For orientation: Mobility shift assays separate free from complexed probe on a gel.

B1: purified recombinant DPP9-FLAG, Q86TI2 1-863 (enzyme)
chain: MATTGTPTADRGDAAATDDPAARFQVQKHSWDGLRSIIHGSRKYSGLIVNKAPHDFQFVQKTDESGPHSHRLYYLGMPYGSRENSLLYSEIPKKVRKEALLLLSWKQMLDHFQATPHHGVYSREEELLRERKRLGVFGITSYDFHSESGLFLFQASNSLFHCRDGGKNGFMVSPMKPLEIKTQCSGPRMDPKICPADPAFFSFINNSDLWVANIETGEERRLTFCHQGLSNVLDDPKSAGVATFVIQEEFDRFTGYWWCPTASWEGSEGLKTLRILYEEVDESEVEVIHVPSPALEERKTDSYRYPRTGSKNPKIALKLAEFQTDSQGKIVSTQEKELVQPFSSLFPKVEYIARAGWTRDGKYAWAMFLDRPQQWLQLVLLPPALFIPSTENEEQRLASARAVPRNVQPYVVYEEVTNVWINVHDIFYPFPQSEGEDELCFLRANECKTGFCHLYKVTAVLKSQGYDWSEPFSPGEDEFKCPIKEEIALTSGEWEVLARHGSKIWVNEETKLVYFQGTKDTPLEHHLYVVSYEAAGEIVRLTTPGFSHSCSMSQNFDMFVSHYSSVSTPPCVHVYKLSGPDDDPLHKQPRFWASMMEAASCPPDYVPPEIFHFHTRSDVRLYGMIYKPHALQPGKKHPTVLFVYGGPQVQLVNNSFKGIKYLRLNTLASLGYAVVVIDGRGSCQRGLRFEGALKNQMGQVEIEDQVEGLQFVAEKYGFIDLSRVAIHGWSYGGFLSLMGLIHKPQVFKVAIAGAPVTVWMAYDTGYTERYMDVPENNQHGYEAGSVALHVEKLPNEPNRLLILHGFLDENVHFFHTNFLVSQLIRAGKPYQLQIYPNERHSIRCPESGEHYEVTLLHFLQEYL
One may read the stoichiometry N as the number of molecules, sites or subunits per partner or assembly. In the case of B1, the stoichiometry N was 2.
